One substance from patent US20150132317A1 can be followed below.

The target in this assay is ALK F1174L, human (human) (UniProt Q9UM73). Nature of the assay: flow cytometry, SY5Y cells stained with isotype control.

Consider isotype control (antibody), for which the mean fluorescence intensity (MFI) turned out to be 90.
